According to paper PMC2731815:

Tests used:
[1] = target: thrombomodulin fragment 4-6 (TM4-6); assay: competition in a kinetic assay
[2] = target: Fl-FPR-inhibited thrombin (UniProt P00734); assay: other fluorescence titration

Kd [1] [nM]	Kd [2] [nM]	Substance
9	–	Ser-195 to Ala (S195A) substitution mutant of thrombin (from UniProt P00734 44-622) (enzyme)
–	3.5	thrombomodulin fragment 4-6 (TM4-6) (domain or fragment)
